According to US20090143241A1:

Target: ClpXP protease (E. coli ClpX6 with ClpP14) (E. coli) (UniProt P0A6H1)
Experiment: cell-based or functional assay

ClpXP protease (E. coli ClpX6 with ClpP14) (E. coli), sequence (P0A6H1 whole entry, chain 1 of 2): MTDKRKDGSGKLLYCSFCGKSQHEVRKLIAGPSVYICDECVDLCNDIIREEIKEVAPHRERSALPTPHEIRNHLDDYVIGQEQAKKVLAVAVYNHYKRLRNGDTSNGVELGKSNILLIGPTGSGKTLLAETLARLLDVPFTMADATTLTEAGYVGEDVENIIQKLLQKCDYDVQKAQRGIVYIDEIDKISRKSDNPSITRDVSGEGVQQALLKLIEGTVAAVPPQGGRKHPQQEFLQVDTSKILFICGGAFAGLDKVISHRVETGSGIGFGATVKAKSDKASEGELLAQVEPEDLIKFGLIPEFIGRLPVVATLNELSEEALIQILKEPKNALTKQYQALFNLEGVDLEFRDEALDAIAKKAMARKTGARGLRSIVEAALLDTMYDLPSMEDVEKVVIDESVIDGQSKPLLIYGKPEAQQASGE
ClpXP protease (E. coli ClpX6 with ClpP14) (E. coli), sequence (P0A6G7 15-207, chain 2 of 2, further chain): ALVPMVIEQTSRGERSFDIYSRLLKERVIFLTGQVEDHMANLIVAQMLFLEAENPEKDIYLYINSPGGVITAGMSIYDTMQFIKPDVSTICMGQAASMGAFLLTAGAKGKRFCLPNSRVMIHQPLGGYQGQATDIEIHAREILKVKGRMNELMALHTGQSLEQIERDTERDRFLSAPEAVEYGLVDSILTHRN

λ O protein, N-terminally His6-tagged (from UniProt P03688 1-333)
half-life of λ O with ClpXP, no inhibitor: 35 min
